B1: SEQID-00570: protein of the 168 nutritive polypeptide library (protein, listed as Saccharomyces cerevisiae)
chain: MFLRNSVLRTAPVLRRGITTLTPVSTKLAPPAAASYSQAMKANNFVYVSGQIPYTPDNKPVQGSISEKAEQVFQNVKNILAESNSSLDNIVKVNVFLADMKNFAEFNSVYAKHFHTHKPARSCVGVASLPLNVDLEMEVIAVEKN
modifications: source: /note="strain ATCC 204508 / S288c"
notes: protein of the 168 nutritive polypeptide library
B2: SEQID-00573: protein of the 168 nutritive polypeptide library (protein, listed as Cicer arietinum)
chain: MAPAKAEKKPAEKKPAAEKAPAEKKPKAEKKISKEGTSDKKKKRVKKSVETYKIYIFKVLKQVHPDIGISSKAMGIMNSFINDIFEKLAQEASRLARYNKKPTITSREIQTAVRLVLPGELAKHAVSEGTKAVTKFTSS
B3: SEQID-00574: protein of the 168 nutritive polypeptide library (protein, listed as Lactobacillus acidophilus)
chain: MPTINQLVRKGRHSKVTKSKSPALNYSYNSMKKESVFNPAPQMRGVATRVGTMTPKKPNSALRKYARVRLSNLIEVTAYIPGEGHNLQEHSVVLIRGGRVKDLPGVRYHIVRGALDTAGVDGRKQSRSKYGAKKD
modifications: source: /note="strain 30SC"
notes: as for B1
B4: SEQID-00581: protein of the 168 nutritive polypeptide library (protein)
chain: MPKRQRKLAPPRGYKMHVKKGDTVQVIAGRDKGKVGEVISTLPKLSKVVVRDVNVRTKHVKPQQEGEGGRIVNFEAPIHSSNVMLYSTKEKVASRVSYTFTEDGRKVRMLKKTGEVID
modifications: Arthrospira platensis NIES-39
notes: as for B1
B5: SEQID-00590: protein of the 168 nutritive polypeptide library (protein, listed as Lactobacillus acidophilus)
chain: MANKAELVSEVASKTKLTKKEVAAAVDAIFGSIQDNLAKGEKVQLIGFGTFEVRHRAARKGRNPQTGDEIEIPASEVPAFKPGKALKEAVK
modifications: source: /note="strain 30SC"
notes: as for B1
B6: SEQID-00591: protein of the 168 nutritive polypeptide library (protein, listed as Saccharomyces cerevisiae)
chain: MLNRCISRNTRLPVNLRIASRFYSDGPLGGAGPGNPQDIFIKRERAKEDYYARQQEREQLAHVKEQLKEHKKKLENLENKINNLSK
modifications: source: /note="strain ATCC 204508 / S288c"
notes: as for B1
B7: SEQID-00592: protein of the 168 nutritive polypeptide library (protein)
chain: MAQTVVLKVGMSCEGCVGAVKRVLGKMEGVESYDVDIMEQKVTVKGNVTPDAVLQTVSKTGKKTSFWEAEAVTSESATPAGATA
modifications: Zea mays
notes: as for B1
B8: SEQID-00599: protein of the 168 nutritive polypeptide library (protein, listed as Agaricus bisporus)
chain: MSESLRYLGSLEGHKGWVTAIATSSENPDMILTASRDKTIIVWQLTREDDSYGYPKRILHGHNHFVSDVVISSDGQFALSSSWDHTLRLWDLNTGVTTRRFVGHSSDVLSVSFSADNRQIVSGSRDRTIKLWNTLGECKFDIKEDGHSEWVSCVRFSPNVANPVIVSAGWDKVVKVWELSKFKLKTNHYGHTGYINTVSVSPDGSLAASGGKDGITMLWDLNEGKHLYSLEAGDVVNALVFSPNRYWLCAATASCVKIFDLESKSIVDELKPTYTDVGEDARQPECVSIAWSADGQTLFTGYTDNAVRVWIVTS
modifications: source: /note="var. bisporus"; source: /note="strain H97 / ATCC MYA-4626 / FGSC 10389"
notes: as for B1
B9: SEQID-00602: protein of the 168 nutritive polypeptide library (protein, listed as Lactobacillus acidophilus)
chain: MKSYMKKIAAVVAVAGVALSTAACSNGGSNSTVASYKGGKITQQQYYDEMKKSQAGKSTLANMIINRALEQQYGKYVSSKKVDKQYNNYKKQYGSQFSAVLQQNGMTASSFKENLKTNLLSEQALKHIKKISKKQEQQAWKSYQPKVTVQHILVAKKSTAQSIIKQLKDGKSFKSLAKKYSLDTATKNKAGKLPAFDSTDNTLDSSFKTAAFKLKTGEVTSTPVKSQSGYHVIKMISHPAKGKFADHKKAIDDEIYASMAQDQATMKDVISTVLKRADVSIKDSDLKDVLASYVSTTSATK
modifications: source: /note="strain 30SC"
notes: as for B1
B10: SEQID-00607: protein of the 168 nutritive polypeptide library (protein)
chain: MALQDDWQQSHLERRQVLAESQKQIWATIGLWQRERYSQAITQKQDRQAFVSQLKQENQAFLADAHNNHRQQAEQLAEDLKEFVRSLQKETATFLEESAQSRAEKAEELAQELRDFRAELRDTVAQWQQQWQQQDQERAAGRRKLAQQVQGDLQEFNIIRTIMAEKLLQQTQEAKAERLAGIQSMFEDMGKFRMQLQEYRREREKSVWGGERVKSTPATPQKAKASQTLVPQTKPKAVKSAPSTTTAAQSTTPTAVVVAEPTKPAVPPNQPKPTTVVPHPPNPG
modifications: Arthrospira platensis C1
notes: as for B1
B11: SEQID-00609: protein of the 168 nutritive polypeptide library (protein, listed as Saccharomyces cerevisiae)
chain: MSNPFDLLGNDVEDADVVVLPPKEIVKSNTSSKKADVPPPSADPSKARKNRPRPSGNEGAIRDKTAGRRNNRSKDVTDSATTKKSNTRRATDRHSRTGKTDTKKKVNQGWGDDKKELSAEKEAQADAAAEIAEDAAEAEDAGKPKTAQLSLQDYLNQQANNQFNKVPEAKKVELDAERIETAEKEAYVPATKVKNVKSKQLKTKEYLEFDATFVESNTRKNFGDRNNNSRNNFNNRRGGRGARKGNNTANATNSANTVQKNRNIDVSNLPSLA
modifications: source: /note="strain ATCC 204508 / S288c"
notes: as for B1
B12: SEQID-00612: protein of the 168 nutritive polypeptide library (protein, listed as Oryza sativa)
chain: MICLRAAFPLTSSPLRRLALKPSSSRAAAAAMSSAIAAPVEHIVLIKVRPEAASSGAAAAMVSSLQALSTAVPGLSYIHVGPVLRLRSPAAEALGPTHVLHSRYATKPDLAAYAAHPAHVAAVQGHVLPNALDSTAIDWVNAALVPSPVNPGSAVRLSLAKLKEGVEAHQLAEKLAAATAAAGEAKGAKVSFGENFSPARAKGYQFGMVAVFDSVEGLDAVDGDGKVEAAKAIVRPLLDDVLELEFVVGPAAAEAPAPANL
modifications: source: /note="subsp. japonica"
notes: as for B1
B13: SEQID-00613: protein of the 168 nutritive polypeptide library (protein)
chain: MGLFDRIGRVVRANLNDLVNKAEDPEKILEQAVIEMQEDLIQLRQAVAQTIAQQKRSQQQYNQAQSQANQWQSRAQLALQKGDENLAREALQRKKGYLETANTLEISLRQQTEQVETLKRNLVSLESKISEAKTKKNMLKARAQAAKANEQLNNVLGGINTSSATSVFERMEEKVMIQEAKSQAAAELMGSGLEEQFRALEEGSDVDDELAAMKAQLAGAPANQPQLSPSAPTDSSTSNPEIDNELEELRRELNK
modifications: Arthrospira platensis C1
notes: as for B1
B14: SEQID-00617: protein of the 168 nutritive polypeptide library (protein)
chain: MNKEQLVQETSIKAGVTKKQADAIISAICECIMDAVADGEKVTLVGFGSFEARHRKAREGRNPSTGQPMTIPATTVPAFSAGKAFKERVANESNENVA
modifications: Arthrospira platensis NIES-39
notes: as for B1
B15: SEQID-00618: protein of the 168 nutritive polypeptide library (protein)
chain: MDAGGKIKKGAGGRKGGGPKKKPVSRSVKAGLQFPVGRIGRYLKKGRYAQRVGTGAPVYLAAVLEYLAAEVLELAGNAARDNKKNRIIPRHVLLAVRNDEELGKLLAGVTIAHGGVLPNINPVLLPKKTERASKEPKSPSKATKSPKKA
modifications: Glycine max
notes: as for B1
B16: SEQID-00619: protein of the 168 nutritive polypeptide library (protein, listed as Linum usitatissimum)
chain: MAPKAAEKKPAEKKPAEEKKAEKAPAEKKPRAEKKLPKEGGAAAADKKKKRNKKNVETYKIYIFKVLKQVHPDIGISSKAMGIMNSFINDIFEKLAAESSRLARYNKKPTITSREIQTAVRLVLPGELAKHAVSEGTKAVTKFTSS

Test: SGF digest of 168 nutritive polypeptide library, intact protein by LC-MS/MS
Type: in vitro ADME
Conditions: 168 nutritive polypeptide library SGF digest, LC-MS/MS spectral counts
Description: The in vitro intact half-life of multiple polypeptides in a complex mixture was determined using the simulated gastric in vitro digestion described above. Briefly, the 168 nutritive polypeptide library was generated as described herein by cloning, transforming, and expressing a gene library encoding 168 proteins as a single mixture. The recombinantly expressed proteins were purified from host cell proteins by IMAC purification as described herein.
The 168 Protein Library was treated with SGF as described above and the t=0 and t=10 min samples were analyzed for intact protein by LC-MS/MS. To begin, 10 μg of sample was loaded onto a 10% SDS-PAGE gel (Invitrogen) and run approximately 5 cm into the gel. The gel was excised into ten fractions from 100 kD to the dye front and the gel slices were processed by washing with 25 mM ammonium bicarbonate, followed by acetonitrile. Gel fractions were then reduced with 10 mM dithiothreitol at 60° C., followed by alkylation with 50 mM iodoacetamide at room temperature. Finally, the samples were digested with trypsin (Promega) at 37° C. for 4 h and the digestions were quenched with the addition of formic acid. The samples were then analyzed by nano LC/MS/MS using an EasynLC 1000 HPLC system interfaced to a ThermoFisher Q Exactive. Peptides were loaded on a trapping column and eluted over a 75 μm analytical column at 350 nL/min; both columns were packed with PepMap C18 3 μm resin (ThemoFisher). A 1 hour gradient was employed. The mass spectrometer was operated in data-dependent mode, with MS and MS/MS performed in the Orbitrap at 70,000 FWHM resolution and 17,500 FWHM resolution, respectively. The fifteen most abundant ions were selected for MS/MS. Data were searched against an appropriate database using Mascot to identify peptides. Mascot DAT files were parsed into the Scaffold software for validation, filtering and to create a nonredundant list per sample. Data were filtered at 1% protein and peptide false discovery rate (FDR) and requiring at least two unique peptides per protein. A full list of detected proteins and their spectral counts (SpC) was generated and reported as a function of each collected gel fraction. SpC are a count of the number of spectra identified for a given protein and are used as a measure of relative protein abundance (Liu, H. et al., Analytical Chemistry 2004, 76: 4193-4201). To calculate the percentage of intact protein remaining at the 10 min time point of the SGF digest the number of SpC representative of intact peptide in the t=10 min sample were divided by the number of SpC representative of intact peptide in the t=0 min sample. The number of SpC representative of intact peptide was defined as the sum of the SpC in the fraction with the highest number of SpC assigned to that protein in the t=0 min sample and the two flanking fractions.

Row | Molecule | % Intact Protein at 10 min
1 | B1 | 91.4%
2 | B2 | 66.7%
3 | B3 | 0%
4 | B4 | 33.3%
5 | B5 | 0%
6 | B6 | 20%
7 | B7 | 24.3%
8 | B8 | 0%
9 | B9 | 0%
10 | B10 | 0%
11 | B11 | 0%
12 | B12 | 0%
13 | B13 | 0%
14 | B14 | 43.9%
15 | B15 | 0%
16 | B16 | 68.5%

Reference: patent US20160228506A1, “Compositions and Formulations for Prevention and Reduction of Tumorigenesis, Cancer Cell Proliferation and Invasion, and Methods of Production and Use Thereof in Cancer Treatment” (PRONUTRIA, INC., priority 2013, published 2016)
